Data taken from US20260139013A1 (VIB VZW, published 2026).

Molecular target: the molecule itself
Experiment: cryo-EM structure of the self-assembled fiber (subunit to subunit)

B1: Ena1B-HI-Rubredoxin (other)
chain: MGNCSTNLSCCANGQKTIVQDKVCIDWTAAATAAIIYADNISQDIYASGYLKVDTGTGPVTIVFYSGGVTGTAVETIVVATGSSASFTVRRFDTVTILGGGKYVCTVCGYEYDPAEGDPDNGVKPGTSFDDLPADWVCPVCGAPKSEFEAAGAAETGEFCMTIRYTLS
notes: It was made in E. coli and studied as a self-assembled helical fiber of many identical subunits; The rubredoxin centre carried mostly zinc and some iron; also called Ena-HI-Rubredoxin; Ena1B-Rubredoxin-HI
**Q.** Does B1 bind?
**A.** Result: binds
